Our source for the Kd and fold increase of UIC2 binding after 20 µM cyclosporine A against DMSO values is publication PMC6109178.

In assay [1] the target is Mouse P-gp-ECL1&4-h18 (mouse) (UniProt P21447). Nature of the assay: flow cytometry on cells; apparent Kd; HeLa cells expressing the P-gp variant (300,000 cells/assay) stained with UIC2 at 0.01 to 3 µg per 100,000 cells for 30 min at 37 °C; GraphPad Prism.
Assay [2] has as its target Mouse P-gp-ECL13&4-h19 (mouse) (UniProt P21447). The description is as above.
Assay [3] concerns the target Mouse P-gp-ECL1&4-h18 (mouse) (UniProt P21447). Nature of the assay: flow cytometry on cells; UIC2 shift assay: HeLa cells incubated 5 min at 37 °C with DMSO or 20 µM cyclosporine A before UIC2 at saturated concentration (3 µg/100,000 cells), 30 min; FITC-labeled anti-mouse secondary antibody. On the technique in general: A flow cytometer gives signals particle by particle.

Assay [4] deals with Mouse P-gp-ECL13&4-h19 (mouse) (UniProt P21447). The assay is described as above.

Consider UIC2 monoclonal antibody, for which the Kd in assay [1] was 11.7 nM; in assay [2], 5.1 nM. Also, the fold increase of UIC2 binding after 20 µM cyclosporine A against DMSO lay within 1.4 to 1.7 fold in assay [3] and 1.2 to 1.4 fold in assay [4].
